# Results taken from US20220267438A1 (Janssen / Centocor, published 2022).
# Where two headings read alike, the source gives them in different places.
# T1: human BCMA (B cell maturation antigen, TNFRSF17) on cells (human, UniProt Q02223 1-184)
# T1 sequence (looked up): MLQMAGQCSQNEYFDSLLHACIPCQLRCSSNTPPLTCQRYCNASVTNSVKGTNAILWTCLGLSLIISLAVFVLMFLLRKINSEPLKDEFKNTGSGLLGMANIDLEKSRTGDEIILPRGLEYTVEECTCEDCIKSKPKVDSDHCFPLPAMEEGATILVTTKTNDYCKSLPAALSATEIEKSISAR
# T2: BCMW37 (recombinant human BCMA antigen) (human, UniProt Q02223 1-54, limits assumed)
# T2 construct: also called BCMA BCMW37 chain; human BCMA (SPR antigen)
# T2 sequence (looked up): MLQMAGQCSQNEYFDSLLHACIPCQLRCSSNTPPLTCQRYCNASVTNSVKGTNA
# B1: GC5B680 (parental anti-GPRC5D binder, tested as Fab) (Fab, V domains shown)
# VH: QVTLKESGPVLVKPTETLTLTCTVSGFSLTNIRMSVSWIRQPPGKALEWLAHIFSNDEKSYSTSLKSRLTISRDTSKSQVVLTLTNVDPVDTATYYCARMRLPYGMDVWGQGTTVTVSS
# VL: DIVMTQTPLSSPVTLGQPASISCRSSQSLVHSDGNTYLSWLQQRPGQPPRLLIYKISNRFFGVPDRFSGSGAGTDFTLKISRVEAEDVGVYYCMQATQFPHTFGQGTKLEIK
# notes: Tested 'as Fab'; also called GPRC5d lead
# B2: Teclistamab (BCMA×CD3 bispecific antibody) (bispecific antibody)
# chain 1: not shown
# chain 2: SYVLTQPPSVSVAPGQTARITCGGNNIGSKSVHWYQQPPGQAPVVVVYDDSDRPSGIPERFSGSNSGNTATLTISRVEAGDEAVYYCQVWDSSSDHVVFGGGTKLTVLGQPKAAPSVTLFPPSSEELQANKATLVCLISDFYPGAVTVAWKGDSSPVKAGVETTTPSKQSNNKYAASSYLSLTPEQWKSHRSYSCQVTHEGSTVEKTVAPTECS
# chain 3: EVQLVESGGGLVQPGGSLRLSCAASGFTFNTYAMNWVRQAPGKGLEWVARIRSKYNNYATYYAASVKGRFTISRDDSKNSLYLQMNSLKTEDTAVYYCARHGNFGNSYVSWFAYWGQGTLVTVSSASTKGPSVFPLAPCSRSTSESTAALGCLVKDYFPEPVTVSWNSGALTSGVHTFPAVLQSSGLYSLSSVVTVPSSSLGTKTYTCNVDHKPSNTKVDKRVESKYGPPCPPCPAPEAAGGPSVFLFPPKPKDTLMISRTPEVTCVVVDVSQEDPEVQFNWYVDGVEVHNAKTKPREEQFNSTYRVVSVLTVLHQDWLNGKEYKCKVSNKGLPSSIEKTISKAKGQPREPQVYTLPPSQEEMTKNQVSLTCLVKGFYPSDIAVEWESNGQPENNYKTTPPVLDSDGSFLLYSKLTVDKSRWQEGNVFSCSVMHEALHNHYTQKSLSLSLGK
# chain 4: QTVVTQEPSLTVSPGGTVTLTCRSSTGAVTTSNYANWVQQKPGQAPRGLIGGTNKRAPGTPARFSGSLLGGKAALTLSGVQPEDEAEYYCALWYSNLWVFGGGTKLTVLGQPKAAPSVTLFPPSSEELQANKATLVCLISDFYPGAVTVAWKADSSPVKAGVETTTPSKQSNNKYAASSYLSLTPEQWKSHRSYSCQVTHEGSTVEKTVAPTECS
# B3: Talquetamab (GPRC5D×CD3 bispecific antibody) (bispecific antibody)
# chain 1: not shown
# chain 2: DIQMTQSPSSLSASVGDRVTITCKASQNVATHVGWYQQKPGKAPKRLIYSASYRYSGVPSRFSGSGSGTEFTLTISNLQPEDFATYYCQQYNRYPYTFGQGTKLEIKRTVAAPSVFIFPPSDEQLKSGTASVVCLLNNFYPREAKVQWKVDNALQSGNSQESVTEQDSKDSTYSLSSTLTLSKADYEKHKVYACEVTHQGLSSPVTKSFNRGEC
# chain 3: B2 chain 3
# chain 4: B2 chain 4
# B4: GCDB381 (CD3B376 Fab in bivalent IgG1-AAS antibody) (antibody, V domains shown)
# VH: QVQLQQSGPRLVRPSQTLSLTCAISGDSVFNNNAAWSWIRQSPSRGLEWLGRTYYRSKWLYDYAVSVKSRITVNPDTSRNQFTLQLNSVTPEDTALYYCARGYSSSFDYWGQGTLVTVSS
# VL: QSALTQPASVSGSPGQSITISCTGTSSNIGTYKFVSWYQQHPDKAPKVLLYEVSKRPSGVSSRFSGSKSGNTASLTISGLQAEDQADYHCVSYAGSGTLLFGGGTKLTVL
# B5: BCMB519 (parental anti-BCMA binder, tested as scFv) (scFv, V domains shown)
# VH: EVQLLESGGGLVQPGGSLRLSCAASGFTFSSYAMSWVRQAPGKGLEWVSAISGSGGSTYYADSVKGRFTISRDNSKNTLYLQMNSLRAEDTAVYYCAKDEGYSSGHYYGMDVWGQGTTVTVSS
# VL: EIVLTQSPGTLSLSPGERATLSCRASQSISSSFLTWYQQKPGQAPRLLIYGASSRATGIPDRFSGGGSGTDFTLTISRLEPEDFAVYYCQHYGSSPMYTFGQGTKLEIK
# notes: Tested 'as scFv'; also called BCMA lead
# What was measured:
# [1] = target: T3, human GPRC5D (G-protein coupled receptor family C group 5 member D) on cells (human, UniProt Q9NZD1 1-345); assay: cell binding, H929 and MM.1R cells
# T3 construct: Target on H929 or MM.1R BCMA knockout cells, K562 cells expressing human GPRC5D and HEK293 cells of the cell microarray
# T3 sequence (Q9NZD1 whole entry): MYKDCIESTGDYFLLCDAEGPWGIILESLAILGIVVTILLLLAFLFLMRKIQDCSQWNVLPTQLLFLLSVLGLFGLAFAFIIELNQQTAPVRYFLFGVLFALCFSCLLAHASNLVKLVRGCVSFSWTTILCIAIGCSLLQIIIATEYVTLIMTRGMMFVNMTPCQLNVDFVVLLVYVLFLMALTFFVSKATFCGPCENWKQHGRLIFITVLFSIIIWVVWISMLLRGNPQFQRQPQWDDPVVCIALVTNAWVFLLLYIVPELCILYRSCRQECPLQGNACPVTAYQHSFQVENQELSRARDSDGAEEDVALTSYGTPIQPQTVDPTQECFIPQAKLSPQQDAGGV
# [2] = target: T3, human GPRC5D (G-protein coupled …); assay: cell binding, H929 and MM.1R cells; lower end of the range over H929 and MM.1R cells
# [3] = target: T1, human BCMA (B cell maturation antigen, …); assay: cell-based or functional assay
# [4] = target: T3, human GPRC5D (G-protein coupled …); assay: cell-based or functional assay
# [5] = target: T4, human CD3 (CD3ε of the TCR/CD3 complex) on primary human pan T cells (human, UniProt P07766 23-207); assay: flow cytometry on T cells of donor D316144, with curve extrapolation
# T4 construct: whole, on cells; On T cells CD3ε stands in the whole TCR/CD3 complex
# T4 sequence (P07766 23-207, one chain of several): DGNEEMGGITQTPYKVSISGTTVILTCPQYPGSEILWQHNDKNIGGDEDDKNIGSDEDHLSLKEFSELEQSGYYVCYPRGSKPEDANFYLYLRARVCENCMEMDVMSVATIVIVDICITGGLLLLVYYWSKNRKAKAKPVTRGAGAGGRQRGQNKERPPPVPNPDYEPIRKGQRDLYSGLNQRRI
# Experimental: (§1) Flow cytometry was used to evaluate the CD3 arm (i.e., CD3B376) binding of BGCB491 to CD3⁺ pan T cells from 7 different healthy human. Cell-based EC₅₀ for CD3B376 could not be determined due to lack of saturation kinetics at 1 hour (FIG. 26). Bioinformatic extrapolation was performed (FIG. 27) using the CD3B376×Null control antibody (i.e., GCDB381) molecule, which saturates within 2 μM top concentration dose-response to constrain the top of the non-linear regression curve to generate a full curve that enables estimation of ECₓ values (Table 21).
# [6] = target: T4, human CD3 (CD3ε of the TCR/CD3 complex) …; assay: flow cytometry on T cells of donor D203727, with curve extrapolation
# Experimental: as §1
# [7] = target: T5, cynomolgus monkey CD3 on peripheral blood mononuclear cells (cynomolgus monkey, UniProt Q95LI5 22-198); assay: flow cytometry, cynomolgus monkey PBMCs
# T5 construct: whole, on cells; also called cyno CD3
# T5 sequence (Q95LI5 22-198): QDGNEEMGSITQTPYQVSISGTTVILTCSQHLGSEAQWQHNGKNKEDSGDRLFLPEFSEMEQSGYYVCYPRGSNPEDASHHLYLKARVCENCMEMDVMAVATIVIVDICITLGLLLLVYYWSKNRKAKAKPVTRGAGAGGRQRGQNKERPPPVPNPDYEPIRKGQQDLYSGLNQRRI
# Experimental: The CD3-binding arm (i.e., CD3B376) binds to cynomolgus monkey CD3. Briefly, binding was measured by flow cytometry after incubating human and cynomolgus monkey peripheral blood mononuclear cells (PBMCs) with GCDB381 (i.e., CD3B376 Fab in bivalent IgG1-AAS antibody), CD3B891 (i.e., CD3B376×Null, IgG1-AAS bispecific antibody), or null control.
# [8] = target: T4, human CD3 (CD3ε of the TCR/CD3 complex) …; assay: flow cytometry on T cells of donor D327645, with curve extrapolation
# Experimental: as §1
# [9] = target: T2, BCMW37 (recombinant human BCMA antigen); assay: SPR; antigen BCMW37; parental BCMA binder as scFv
# [10] = target: T2, BCMW37 (recombinant human BCMA antigen); assay: SPR
# [11] = target: T1, human BCMA (B cell maturation antigen, …); assay: cell binding, H929 and MM.1R cells
# [12] = target: T1, human BCMA (B cell maturation antigen, …); assay: cell binding, H929 and MM.1R cells; remark: listed apart in the source
binder,measurement,setting,value
B1,EC50,[1],6 to 24 nM
same,EC50,[2],6 to 24 nM
B2,"CD3 T-cell activation EC50, H929-GPRC5D-KO",[3],0.253 nM
same,"CD3 T-cell activation EC50, H929-WT",[3],0.334 nM
same,"Cytotoxicity EC50, H929-GPRC5D-KO",[3],0.198 nM
same,"Cytotoxicity EC50, H929-WT",[3],0.275 nM
B3,"CD3 T-cell activation EC50, H929-BCMA-KO",[4],0.633 nM
same,"CD3 T-cell activation EC50, H929-WT",[4],0.233 nM
same,"Cytotoxicity EC50, H929-BCMA-KO",[4],0.761 nM
same,"Cytotoxicity EC50, H929-WT",[4],0.243 nM
B4,EC50 (read off the curve),[5],~80 nM
same,EC50 (read off the curve),[6],~80 nM
same,binding result,[7],binds
same,EC50 (read off the curve),[8],~70 nM
B5,Kd,[9],0.28 nM
same,Kd,[10],0.28 nM
same,EC50,[11],2.3 to 3.2 nM
same,EC50,[12],2.3 to 3.2 nM
